In one data set the target is T1, GST-SDE2-FLAG ΔSAP (human, UniProt Q6IQ49 1-451, del395-427).
T1 sequence: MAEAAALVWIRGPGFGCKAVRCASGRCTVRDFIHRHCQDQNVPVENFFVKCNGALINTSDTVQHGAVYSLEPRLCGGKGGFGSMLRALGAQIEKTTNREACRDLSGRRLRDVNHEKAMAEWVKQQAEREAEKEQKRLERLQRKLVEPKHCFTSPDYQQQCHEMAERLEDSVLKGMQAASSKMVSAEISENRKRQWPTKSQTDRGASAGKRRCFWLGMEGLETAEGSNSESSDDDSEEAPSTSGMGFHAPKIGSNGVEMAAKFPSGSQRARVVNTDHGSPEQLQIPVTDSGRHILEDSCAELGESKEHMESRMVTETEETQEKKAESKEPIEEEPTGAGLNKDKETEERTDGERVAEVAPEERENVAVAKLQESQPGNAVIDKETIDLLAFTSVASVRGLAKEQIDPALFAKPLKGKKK
In words: EMSA; 200 nM protein, 50 nM DNA; EMSA: 10 mM Tris-HCl pH 7.5, 50 mM NaCl, 0.5 mM DTT, 0.05 mM EDTA, 3% glycerol, 0.05 mg/ml BSA (or 50 mM Na/K PO4 pH 6.0, 50 mM NaCl, 5 mM DTT), on ice; anisotropy: 50 mM Na/K PO4 pH 6.0, 50 mM NaCl, 5 mM DTT, 1 uM DNA; pull-down: 10 mM Tris-HCl pH 7.5, 100 mM NaCl, 0.2 mM EDTA, 1 mM DTT, 10% glycerol, 0.01% NP-40, 10 ug/ml BSA, RT; NMR: 50 mM Na/K phosphate, 50 mM NaCl, 5 mM DTT, …. The note with it: protein: recombinant; tags: N-term GST, C-term FLAG; label: 5' 6-FAM.

Another data set deals with T2, GST-SDE2 ΔSAP+CTT (human, UniProt Q6IQ49 1-394, del395-451).
T2 sequence: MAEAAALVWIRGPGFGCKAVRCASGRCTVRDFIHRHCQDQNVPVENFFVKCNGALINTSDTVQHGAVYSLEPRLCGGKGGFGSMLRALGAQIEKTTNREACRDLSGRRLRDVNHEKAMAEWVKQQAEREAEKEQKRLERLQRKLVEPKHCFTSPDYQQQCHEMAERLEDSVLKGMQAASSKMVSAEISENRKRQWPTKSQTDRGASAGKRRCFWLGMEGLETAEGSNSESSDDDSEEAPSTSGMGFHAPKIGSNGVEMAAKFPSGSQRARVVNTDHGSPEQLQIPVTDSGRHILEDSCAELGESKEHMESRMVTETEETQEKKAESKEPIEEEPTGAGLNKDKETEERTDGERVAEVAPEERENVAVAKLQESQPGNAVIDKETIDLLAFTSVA
In words: EMSA; 50-200 nM protein; EMSA: 10 mM Tris-HCl pH 7.5, 50 mM NaCl, 0.5 mM DTT, 0.05 mM EDTA, 3% glycerol, 0.05 mg/ml BSA (or 50 mM Na/K PO4 pH 6.0, 50 mM NaCl, 5 mM DTT), on ice; anisotropy: 50 mM Na/K PO4 pH 6.0, 50 mM NaCl, 5 mM DTT, 1 uM DNA; pull-down: 10 mM Tris-HCl pH 7.5, 100 mM NaCl, 0.2 mM EDTA, 1 mM DTT, 10% glycerol, 0.01% NP-40, 10 ug/ml BSA, RT; NMR: 50 mM Na/K phosphate, 50 mM NaCl, 5 mM DTT, 10% D2O. Conditions: protein: recombinant; tags: N-term GST; label: 5' 6-FAM. (In general: A gel shift assay detects complexes by their altered migration in electrophoresis.)

For another data set, the target named is T3, GST-SDE2 CGTKK (human, UniProt Q6IQ49 1-451, C415A;G417S;T418V;K444A;K447A).
T3 sequence: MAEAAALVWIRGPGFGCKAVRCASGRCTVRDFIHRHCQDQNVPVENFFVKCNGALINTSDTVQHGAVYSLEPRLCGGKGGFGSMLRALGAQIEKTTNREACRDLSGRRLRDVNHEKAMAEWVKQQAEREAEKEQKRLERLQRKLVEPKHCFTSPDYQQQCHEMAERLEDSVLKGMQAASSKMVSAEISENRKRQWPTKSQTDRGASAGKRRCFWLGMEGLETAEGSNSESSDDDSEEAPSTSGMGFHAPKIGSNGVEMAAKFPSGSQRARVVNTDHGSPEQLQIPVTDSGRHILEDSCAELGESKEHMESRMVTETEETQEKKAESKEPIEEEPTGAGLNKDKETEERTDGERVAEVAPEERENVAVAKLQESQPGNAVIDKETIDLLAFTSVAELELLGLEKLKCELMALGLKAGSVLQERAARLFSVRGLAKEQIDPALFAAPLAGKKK
In words: EMSA; 50-200 nM protein, 20 nM DNA; EMSA: 10 mM Tris-HCl pH 7.5, 50 mM NaCl, 0.5 mM DTT, 0.05 mM EDTA, 3% glycerol, 0.05 mg/ml BSA (or 50 mM Na/K PO4 pH 6.0, 50 mM NaCl, 5 mM DTT), on ice; anisotropy: 50 mM Na/K PO4 pH 6.0, 50 mM NaCl, 5 mM DTT, 1 uM DNA; pull-down: 10 mM Tris-HCl pH 7.5, 100 mM NaCl, 0.2 mM EDTA, 1 mM DTT, 10% glycerol, 0.01% NP-40, 10 ug/ml BSA, RT; NMR: 50 mM Na/K phosphate, 50 mM NaCl, 5 mM DTT, …. The note with it: protein: recombinant; tags: N-term GST; label: 5' 6-FAM.

The target of the next data set is T4, GST-SDE2SAP (human, UniProt Q6IQ49 350-451).
T4 sequence: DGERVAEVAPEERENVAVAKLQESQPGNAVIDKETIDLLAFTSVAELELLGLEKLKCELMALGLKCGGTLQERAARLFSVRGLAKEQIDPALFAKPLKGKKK
In words: fluorescence anisotropy; EMSA: 10 mM Tris-HCl pH 7.5, 50 mM NaCl, 0.5 mM DTT, 0.05 mM EDTA, 3% glycerol, 0.05 mg/ml BSA (or 50 mM Na/K PO4 pH 6.0, 50 mM NaCl, 5 mM DTT), on ice; anisotropy: 50 mM Na/K PO4 pH 6.0, 50 mM NaCl, 5 mM DTT, 1 uM DNA; pull-down: 10 mM Tris-HCl pH 7.5, 100 mM NaCl, 0.2 mM EDTA, 1 mM DTT, 10% glycerol, 0.01% NP-40, 10 ug/ml BSA, RT; NMR: 50 mM Na/K phosphate, 50 mM NaCl, 5 mM DTT, 10% D2O. The note with it: protein: recombinant; tags: N-term GST; label: 5' 6-FAM.

For the next data set, the target named is T5, GST-SDE2-FLAG WT (human, UniProt Q6IQ49 1-451).
T5 sequence: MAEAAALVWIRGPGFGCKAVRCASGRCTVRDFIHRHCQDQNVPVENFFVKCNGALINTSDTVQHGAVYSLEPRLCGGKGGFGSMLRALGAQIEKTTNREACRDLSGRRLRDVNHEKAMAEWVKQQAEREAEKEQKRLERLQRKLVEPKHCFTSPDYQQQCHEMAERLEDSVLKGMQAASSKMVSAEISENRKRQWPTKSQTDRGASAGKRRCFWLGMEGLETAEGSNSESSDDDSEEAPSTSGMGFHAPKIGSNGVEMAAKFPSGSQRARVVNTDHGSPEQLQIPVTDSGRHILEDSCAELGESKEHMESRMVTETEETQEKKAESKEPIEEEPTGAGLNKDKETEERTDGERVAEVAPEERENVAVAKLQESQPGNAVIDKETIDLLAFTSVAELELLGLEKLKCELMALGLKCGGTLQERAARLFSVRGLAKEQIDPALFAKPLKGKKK
The data set is described as above. Conditions: protein: recombinant; tags: N-term GST, C-term FLAG; label: 5' 6-FAM.

B1: 60-mer ssDNA (EMSA1) (ssDNA)
DNA: GACGCTGCCGAATTCTACCAGTGCCTTGCTAGGACATCTTTGCCCACCTGCAGGTTCACCC
By Kd is commonly meant a measure of binding affinity in units of concentration. With B1, the binding result with GST-SDE2-FLAG ΔSAP, in the data set with GST-SDE2 ΔSAP+CTT and with GST-SDE2 CGTKK was “no binding” each time. In addition, the Kd with GST-SDE2SAP was 1.77 ± 0.41 µM; in the data set with GST-SDE2-FLAG WT, roughly 1.1 µM.

The values are drawn from paper PMC9399289, “Extended DNA-binding interfaces beyond the canonical SAP domain contribute to the function of replication stress regulator SDE2 at DNA replication forks”.
